According to paper PMC6070888:
Where two headings read alike, the source gives them in different places.

Molecular target: T1, ZafA ZF3-6 (Aspergillus fumigatus) (UniProt Q4WT96)
T1 sequence: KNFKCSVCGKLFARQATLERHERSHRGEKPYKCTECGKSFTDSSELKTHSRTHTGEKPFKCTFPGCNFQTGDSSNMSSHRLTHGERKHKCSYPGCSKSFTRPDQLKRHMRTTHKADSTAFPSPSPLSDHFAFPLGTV
Assay: EMSA

TGGTACCTCTAGATGGCCATGGTGAGGCGAGGTGATAGGATTGGAAGAGTTCTAATTAACTGAGTAGAGAACTGTTGATTGTTGGTTGATGATGTTGGTGAGACTGAGAACTGAGGGGGTCTTTATATAGATGTTCAGCTATGCGGGGATGCGATCCTGGGGTAGGAGAGCACGTACGGGGCCCCGCTCGTTTGTGGCTCTCCGTGCGGACAT (double strand) [PalcA mutant (CAAGGT to CTCAGT)]
binding: no binding

ATGTCCGCACGGAGAGCCACAAACGAGCGGGGCCCCGTACGTGCTCTCCTACCCCAGGATCGCATCCCCGCATAGCTGAACATCTATATAAAGACCCCCAAGGTTCTCAGTCTCACCAACATCATCAACCAACAATCAACAGTTCTCTACTCAGTTAATTAGAACTCTTCCAATCCTATCACCTCGCCTCACCATGGCCATCTAGAGGTACCA (double strand) [PalcA wild type 213 bp EMSA fragment]
binding (EMSA buffer 25 mM Tris-HCl pH 8, 50 mM KCl, 1 mM MgCl2, 12.5% glycerol, 1 mM DTT, 0.2 ug BSA, protein dialyzed in buffer with 10 uM ZnCl2, 30 C (EMSA 1 h …)): binds
